Data on six substances can be found in patent publication US20240317847A1.

Experiment [1] deals with murine IL-11 (mouse) (UniProt P47873). The experiment in a line: SPR (Biacore), antibody captured, IL-11 at single concentration 200 nM.
For experiment [2], the target named is human IL-11 (human) (UniProt P20809). The experiment is described as above.
For experiment [3] the target is unchanged. In words: Di-complex ELISA, canine IL11RA-hFc binding to immobilized hIL-11, competition.
The target in experiment [4] is murine IL-11 (mouse) (UniProt P47873). In words: Tri-complex ELISA, mIL-11 + mIL-11Ra-Fc + mgp130-Fc, inhibition of complex formation.
For experiment [5] the target is unchanged. The experiment in a line: cell-based or functional assay.
For experiment [6], the target named is human IL-11 (human) (UniProt P20809). In words: cell-based or functional assay.
The target is the same in experiment [7]. The experiment in a line: Tri-complex ELISA, hIL-11 + mIL-11Ra-Fc + hgp130-Fc, inhibition of complex formation.
Experiment [8] addresses murine IL-11 (mouse) (UniProt P47873). In words: Di-complex ELISA, canine IL11RA-hFc binding to immobilized mIL-11, competition.
Experiment [9] has as its target IL-11 [218-IL from R&D Systems, Inc.] (human) (UniProt P20809). In words: cell-based or functional assay.
Experiment [10] has as its target murine IL-11 (Invigate, e.g., lot #C210819-09) (mouse) (UniProt P47873). In words: Tri-complex ELISA: antibody titrated against 8 nM murine IL-11, 2 nM murine gp130-human-Fc and 2 nM murine IL11RA-murine-Fc.
Experiment [11] has the same target. In words: SPR, Biacore T200, 25 C; antibody captured via anti-mouse Fc, IL-11 as analyte, 1:1 Langmuir fit.
Experiment [12] has as its target human IL-11 (Invigate, e.g., lot #C121021-19) (human) (UniProt P20809). Described as above.
For experiment [13] the target is unchanged. In words: Tri-complex ELISA: antibody titrated against 8 nM human IL-11, 2 nM human gp130-human-Fc and 2 nM murine IL11RA-murine-Fc.
Experiment [14] has the same target. In words: Di-complex ELISA: biotinylated human IL-11 on streptavidin plate, antibody titrated against 2 nM canine IL11RA-human-Fc (competitor).
Experiment [15] addresses murine IL-11 (Invigate, e.g., lot #C210819-09) (mouse) (UniProt P47873). The experiment in a line: cell-based or functional assay.
Experiment [16] deals with human IL-11 (Invigate, e.g., lot #C121021-19) (human) (UniProt P20809). In words: cell-based or functional assay.
Sequence of human IL-11 (Invigate, e.g., lot #C121021-19) (human) (P20809 22-199): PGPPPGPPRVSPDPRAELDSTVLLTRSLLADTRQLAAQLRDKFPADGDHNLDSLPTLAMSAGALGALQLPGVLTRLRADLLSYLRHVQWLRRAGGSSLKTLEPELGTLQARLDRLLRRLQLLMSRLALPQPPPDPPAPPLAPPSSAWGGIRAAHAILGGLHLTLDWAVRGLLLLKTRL
Experiment [17] deals with murine IL-11 (Invigate, e.g., lot #C210819-09) (mouse) (UniProt P47873). The experiment in a line: Di-complex ELISA: biotinylated murine IL-11 on streptavidin plate, antibody titrated against 2 nM canine IL11RA-human-Fc (competitor).
Sequence of murine IL-11 (Invigate, e.g., lot #C210819-09) (mouse) (P47873 22-199): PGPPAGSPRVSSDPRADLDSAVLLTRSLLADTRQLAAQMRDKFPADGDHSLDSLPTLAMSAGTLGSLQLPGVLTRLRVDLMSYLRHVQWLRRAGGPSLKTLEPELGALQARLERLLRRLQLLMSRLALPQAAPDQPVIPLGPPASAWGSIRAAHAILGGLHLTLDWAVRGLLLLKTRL

Sequence of human IL-11 (human) (P20809 22-199): as the sequence (P20809 22-199) above
Sequence of murine IL-11 (mouse) (P47873 22-199): as the sequence (P47873 22-199) above
Sequence of IL-11 [218-IL from R&D Systems, Inc.] (human) (P20809 22-199 limits assumed): as the sequence (P20809 22-199) above

As to GTX52814 (antibody), the Kd in the experiment with murine IL-11 (mouse) [1] was found to be 2 nM; with human IL-11 (human) [2] it was 3.3 nM. The Efficacy (%) with human IL-11 (human) [3] stood at 74.9%; in the experiment with murine IL-11 (mouse) [4] it was 106%; in the experiment with human IL-11 (human) [7] it was 36.9%; in the experiment with murine IL-11 (mouse) [8], 89.9%. Also, the IC50 with human IL-11 (human) [3] amounted to 1.9 nM; with murine IL-11 (mouse) [4] it was 17 nM; with human IL-11 (human) [7], 14 nM; with murine IL-11 (mouse) [8], 4.7 nM. Further, the Efficacy (%), Stat3 reporter gene assay came to 75.5% with murine IL-11 (mouse) [5] and 5.1% in the experiment with human IL-11 (human) [6].

As to “IL-11 function blocking polyclonal antibody AF-418-NA (R&D Systems, Inc.)”, the secretion of VEGF-A, primary human fibroid slice assay (ng/mg protein) in experiment [9] turned out to be 17.3.

Consider LS-C104441 (antibody), for which the Kd is 2.2 nM in the experiment with murine IL-11 (mouse) [1] and 3.9 nM with human IL-11 (human) [2]. Further, the Efficacy (%) is 71.5% with human IL-11 (human) [3], 98.4% with murine IL-11 (mouse) [4], 65.6% in the experiment with human IL-11 (human) [7] and 91.2% with murine IL-11 (mouse) [8]. Besides, the IC50 was found to be 5.3 nM with human IL-11 (human) [3], 3.8 nM with murine IL-11 (mouse) [4], 20 nM with human IL-11 (human) [7] and 3.5 nM with murine IL-11 (mouse) [8]. In addition, the Efficacy (%), Stat3 reporter gene assay in the experiment with murine IL-11 (mouse) [5] was 88%; with human IL-11 (human) [6], 42.6%. In the experiment with murine IL-11 (mouse) [5], this substance registered an IC50, Stat3 reporter gene assay of 3.9 nM.

Take LS-C193526 (antibody): the Kd in the experiment with murine IL-11 (mouse) [1] stood at 6.2 nM; with human IL-11 (human) [2], 6.3 nM. Further, the Efficacy (%) with human IL-11 (human) [3] was 90.1%; in the experiment with murine IL-11 (mouse) [4], 90.3%; with human IL-11 (human) [7], 78.5%; with murine IL-11 (mouse) [8], 96.2%. In addition, the IC50 with human IL-11 (human) [3] was determined as 10 nM; in the experiment with murine IL-11 (mouse) [4], 6.6 nM; with human IL-11 (human) [7] it was 10 nM; in the experiment with murine IL-11 (mouse) [8], 6.5 nM. Further, the Efficacy (%), Stat3 reporter gene assay was found to be 88.3% in the experiment with murine IL-11 (mouse) [5] and 52.7% with human IL-11 (human) [6]. Also, the IC50, Stat3 reporter gene assay with murine IL-11 (mouse) [5] came out at 5.6 nM; with human IL-11 (human) [6] it was 50 nM.

In the case of MA5-23711 (antibody), the Kd amounted to 2 nM with murine IL-11 (mouse) [1] and 3.6 nM in the experiment with human IL-11 (human) [2]. In addition, the Efficacy (%) is 51.1% with human IL-11 (human) [3], 62.3% in the experiment with murine IL-11 (mouse) [4], 34.1% with human IL-11 (human) [7] and 70.5% in the experiment with murine IL-11 (mouse) [8]. For the same substance, the IC50 amounted to 60 nM with human IL-11 (human) [3], 19 nM with human IL-11 (human) [7] and 29 nM with murine IL-11 (mouse) [8]. The figures for the Efficacy (%), Stat3 reporter gene assay with murine IL-11 (mouse) [5] and with human IL-11 (human) [6] were 47.6% and 19.9%, respectively.

In the case of “TPP-14250 (R&D Systems, #MAB218) (antibody)”, the Efficacy (%) in experiment [10] worked out at 60.9%; in experiment [13], 67.2%; in experiment [14] it was 67.2%; in experiment [17], 92.3%. For the same substance, the IC50 in [10] worked out at 17 nM; in [13], 38 nM; in experiment [14], 7.4 nM; in [17], 1.3 nM. Further, the values for the Kd in experiment [11] and in [12] were 3.8 nM and 19 nM, respectively. The substance further returned an Efficacy (%), Stat3 reporter gene assay, mouse Il11ra, 3.13 nM mIL-11 in experiment [15] of 69.1%. This substance also showed an IC50 [M], Stat3 reporter gene assay, HEK 293F transfected with mouse Il11ra, 3.13 nM mIL-11 in experiment [15] of 1.42e-07 M. For the same substance, the Efficacy (%), Stat3 reporter gene assay, human IL11RA, 0.78 nM hIL-11 in [16] was 27.1%. The same substance yielded an IC50 [M], Stat3 reporter gene assay, HEK 293F transfected with human IL11RA, 0.78 nM hIL-11 in experiment [16] of 2.41e-10 M.
